Test results published in patent US20200308299A1 (published 2020).
Substitutions are numbered along the chain they refer to.

T1: human Glypican-1 (UniProt P35052 24-530)
T1 chain: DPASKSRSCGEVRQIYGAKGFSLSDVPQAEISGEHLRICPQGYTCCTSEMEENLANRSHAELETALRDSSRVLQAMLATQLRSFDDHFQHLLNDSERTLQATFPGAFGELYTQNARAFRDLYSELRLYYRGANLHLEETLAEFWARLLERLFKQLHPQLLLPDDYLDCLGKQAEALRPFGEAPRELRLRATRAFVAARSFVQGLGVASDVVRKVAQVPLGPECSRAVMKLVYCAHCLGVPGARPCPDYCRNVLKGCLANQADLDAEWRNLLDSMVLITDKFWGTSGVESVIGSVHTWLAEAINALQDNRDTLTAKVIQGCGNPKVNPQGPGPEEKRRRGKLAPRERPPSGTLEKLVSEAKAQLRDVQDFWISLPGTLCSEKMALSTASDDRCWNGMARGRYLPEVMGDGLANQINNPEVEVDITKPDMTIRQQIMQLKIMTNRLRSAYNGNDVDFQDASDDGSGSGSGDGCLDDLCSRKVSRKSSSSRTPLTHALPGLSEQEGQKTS

B1: anti-Glypican-1 antibody clone K090-01a033 (antibody, V domains shown)
VH: QVQLKQSGPELVKPGASVKISCKASGYSFTGYYMHWVKQSPEKSLEWIGEINPSTGDTTYNQKFKAKATLTVDKSSSTAYMQLKSLTSEDSAVYYCAREKRDDGVFAYWGQGTLVTVSS
VL: DIVMSQSPKSMSMSVGERVALSCKASENVGTYVSWYQQKPEQSPKLLIYGASNRYTGVPDRFTGSGSATDFTLTISSVQAEDLADYYCGQSYSYPLTFGAGTKLELKR
B2: anti-Glypican-1 antibody clone K090-01a042 (antibody, V domains shown)
VH: QVQLQQPGAELAKPGASVKMSCKASGYTFTRYWMHWVKQRPGQGLEWIGYINPSSGYTEYNQKFKDKATLTADKSSSTAYMQLSSLTSEDSAVYYCVRLGDYSYYFDYWGQGTTLTVSS
VL: DVVMTQTPLSLPVSLGDQASISCRSSQSIVHSNGNTYLEWYLQKPGQSPKLLIYKVSNRFSGVPDRFSGSGSGTDFTLKISRVEAEDLGVYYCFQGSHVPWTFGGGTKLELKR
B3: anti-Glypican-1 antibody clone K090-01a009 (antibody, V domains shown)
VH: EVQLQQSGPELVKPGASVEISCKASGYSFTGYFMNWVKQSQGKSLEWIGRINPDNGDIFYNQKFKGKATLTVDKSSSTAHMELRSLTSEDSAVYYCARSWNWYFDVWGAGTTVTVSS
VL: DIQMTQSPASLSASVGETVTITCRASENIYSYLAWYQQKQGKSPQLLVYNAKTLAEGVPSRFSGSGSGTQFSLKINSLQPEDFGSYYCQHHYGTPYTFGSGTKLEIKR
B4: GPC1 (other)
chain: T1 chain
B5: anti-Glypican-1 antibody clone K090-01a030 (antibody, V domains shown)
VH: QVQLQQSGAELVRPGTSVKMSCKAAGYTFTNYWIGWVKQRPGHGLEWIGDIYPGGGYTHYNEKFKGKATLTADTSSSTAYMQLSSLTSEDSAIYYCARERVYYDGSRYFDVWGAGTTVTVSS
VL: DIKMTQSPKFLPVSAGDRVTMTCKASQSVGNNVAWYQQKPGQSPKLLIYYASNRYTGVPDRFTGSGSGTDFTFTISSVQVEDLAVYFCQQHYSSPWTFGGGTKLEIKR
B6: anti-Glypican-1 antibody clone K090-01a002 (antibody, V domains shown)
VH: B1 VH with Q1E, K5Q, A24S, G31R, Q39H, F106L
VL: B5 VL with K3Q, W96L, G100A, I106L
B7: anti-Glypican-1 antibody clone K090-01a026 (antibody, V domains shown)
VH: B5 VH with Q3H, Y108F
VL: B5 VL with K3V, T5S
B8: anti-Glypican-1 antibody clone K090-01a017 (antibody, V domains shown)
VH: B5 VH with Q1E, A9G, I51L, Y103F
VL: B5 VL with D1S, K3V, S7T
B9: anti-Glypican-1 antibody clone K090-02b006 (antibody, V domains shown)
VH: EVQLVESGGGLVKPGGSRKLSCAASGFTFSDYGMHWVRQAPEKGLEWVAYISSGSSTIYYADTVKGRFTISRDNAKNTLFLQMTSLRSEDTAIYYCVRHSYYNYDIGGYYAMDYWGQGTSVTVSS
VL: DIVLTQSPSSLSASLGERVSLTCRASQEISGYLSWLQQKPDGTIKRLIYAASTLDSGVPKRFSGSRSGSDYSLTISSLESEDFADYYCLQYASYPLTFGAGTKLEIKR
B10: anti-Glypican-1 antibody clone K090-02a010 (antibody, V domains shown)
VH: B9 VH with Q3K, S52N, E89G, I93M, V97A, N103S, I106V, Y109D, A111V
VL: DIVLTQSPKFMSTSVGDRVSITCKASQDVGTAVAWYQQKPGQSPKLLIYWASTRHTGVPDRFTGSGSGTDFTLTISNVQSEDLADYFCQQYSSYPLTFGAGTKLEIKR
B11: anti-Glypican-1 antibody clone K090-02a002 (antibody, V domains shown)
VH: B9 VH with Q3K, I93M, V97A, N103S, I106V, Y109D, A111V
VL: B10 VL with L4M, T5S
B12: anti-Glypican-1 antibody clone K090-02a014 (antibody, V domains shown)
VH: EVQLQQSGPELVKPGASVKISCKASGYSFTGYYIHWVKQSPEKSLEWIGEINPSTGDITYNQKFKAKATLTVDKSSSTAYMQLKSLTSDDSAVYYCARERNYDRFAYWGQGTLVTVSS
VL: SIVMTQTPALMAASPGEKVTITCSVSSSISSSNLHWYQQKSETSPKPWIYGTSNLASGVPVRFSGSGSGTSYSLTISSMEAEDAATYYCQQWSSYPLTFGAGTKLEIKR

Key:
human Glypican-1 [1] = target: T1, human Glypican-1; assay: FACS
human Glypican-1 [2] = target: T1, human Glypican-1; assay: Biacore
clone18 [3] = assay: FACS
clone4 [4] = assay: FACS
clone18 [5] = assay: Biacore
clone4 [6] = assay: Biacore

Row | Binder | Kd (human Glypican-1 [1]) | Kd (human Glypican-1 [2]) | Kd (clone18 [3]) | Kd (clone4 [4]) | Kd (clone18 [5]) | Kd (clone4 [6])
1 | B1 | 0.583 nM | 8.9 nM |  |  |  | 
2 | B2 | 6.36 nM | 16.2 nM |  |  |  | 
3 | B3 | 4.47 nM | 26.9 nM |  |  |  | 
4 | B4 |  |  | 1.52 nM | 0.804 nM | 3.21 nM | 3.21 nM
5 | B5 | 5.24 nM | 42.8 nM |  |  |  | 
6 | B6 | 0.638 nM | 4.99 nM |  |  |  | 
7 | B7 | 11.2 nM | 12400 nM |  |  |  | 
8 | B8 | 5.92 nM | 24.9 nM |  |  |  | 
9 | B9 | 3.2 nM | 16.3 nM |  |  |  | 
10 | B10 | 2.25 nM | 1.28 nM |  |  |  | 
11 | B11 | 2.25 nM | 1.12 nM |  |  |  | 
12 | B12 | 1.72 nM | 2.52 nM |  |  |  | 
